Assay results as given in publication PMC4044012, “Genome-Based Discovery of a Novel Membrane-Bound 1,6-Dihydroxyphenazine Prenyltransferase from a Marine Actinomycete” (PLoS ONE, 2014).

Legend:
Experiment in all cases: prenyltransferase assay with E. coli membrane fraction, HPLC-UV product quantification
Mpz10 = biological target: T1, Mpz10 (Streptomyces sp. SpC080624SC-11, UniProt A0A068CM06); assay type: biochemical; details: read-out: apparent Km; DMAPP co-substrate, 10 mM MgCl2, 50 mM Tris-HCl pH 8.1, 30°C
T1 construct: NcoI/EcoRI in pET-28a(+) (pPH23), apparently untagged; E. coli Rosetta2(DE3)pLysS membrane fraction
T1 sequence (A0A068CM06 1-331): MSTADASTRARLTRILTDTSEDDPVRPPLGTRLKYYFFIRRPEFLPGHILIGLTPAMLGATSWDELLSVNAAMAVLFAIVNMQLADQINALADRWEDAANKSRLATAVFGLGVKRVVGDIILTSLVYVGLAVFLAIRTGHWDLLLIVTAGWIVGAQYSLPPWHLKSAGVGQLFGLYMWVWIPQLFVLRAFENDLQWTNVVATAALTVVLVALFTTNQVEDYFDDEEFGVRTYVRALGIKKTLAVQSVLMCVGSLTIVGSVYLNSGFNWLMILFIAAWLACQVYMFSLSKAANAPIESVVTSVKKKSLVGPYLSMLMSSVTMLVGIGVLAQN

[1] = substrate: Oc1cccc2nc3c(O)cccc3nc12; assay type: biochemical, Streptomyces sp. SpC080624SC-11; details: 0.5 mM DMAPP constant, 10 mM MgCl2, 50 mM Tris-HCl pH 8.1, 30°C
[2] = substrate: CC(C)=CCOP(=O)(O)OP(=O)(O)O; assay type: biochemical, Streptomyces sp. SpC080624SC-11; details: 0.2 mM 1,6-dihydroxyphenazine constant, 10 mM MgCl2, 50 mM Tris-HCl pH 8.1, 30°C

Row | Molecule | Km (Mpz10) [µM] | Km [1] [µM] | Km [2] [µM]
1 | Oc1cccc2nc3ccccc3nc12 [1-hydroxyphenazine] | 9.8 |  | 
2 | Mpz10 (Streptomyces sp. SpC080624SC-11) (protein, NcoI/EcoRI in pET-28a(+) (pPH23), apparently untagged; E. coli Rosetta2(DE3)pLysS membrane fraction) MSTADASTRARLTRILTDTSEDDPVRPPLGTRLKYYFFIRRPEFLPGHILIGLTPAMLGATSWDELLSVNAAMAVLFAIVNMQLADQINALADRWEDAANKSRLATAVFGLGVKRVVGDIILTSLVYVGLAVFLAIRTGHWDLLLIVTAGWIVGAQYSLPPWHLKSAGVGQLFGLYMWVWIPQLFVLRAFENDLQWTNVVATAALTVVLVALFTTNQVEDYFDDEEFGVRTYVRALGIKKTLAVQSVLMCVGSLTIVGSVYLNSGFNWLMILFIAAWLACQVYMFSLSKAANAPIESVVTSVKKKSLVGPYLSMLMSSVTMLVGIGVLAQN |  | 53 | 153
